Positions count from the first letter of the chain named.
B1: P1AE5706 (antibody, V domains shown)
VH: ELQLEQSGGGLVQPGGSLTLSCAASGFTFSKYAMAWVRQAPTKGLEWVASISTGGVNTYYRDSVKARFTISRDNAKNTQYLQMDSLRSEDTATYYCATHTGDYFDYWGQGVMVTVSS
VL: DIVLTQSPALAVSPGQRATISCRASQSVSISGINLMNWYQQKPGQQPKLLIYHASILASGIPTRFSGSGSGTDFTLTIDPVQADDIATYYCQQTRESPLTFGSGTNLEIK
B2: P1AE5718 (antibody, V domains shown)
VH: B1 VH with E5L, Q6E, T19R, T42G, Q79L, D84N, S88A, T93V, V111T
VL: DIQMTQSPSSLSASVGDRVTITCRASQSVSISGINLMNWYQQKPGKQPKLLIYHASILASGVPSRFSGSGSGTDFTLTISSLQPEDFATYYCQQTRESPLTFGQGTRLEIK
B3: P1AE5719 (antibody, V domains shown)
VH: B1 VH with E5L, Q6E, T19R, T42G, Q79L, D84N, S88A, T93V, V111T
VL: B2 VL with K46Q
B4: P1AE5707 (antibody, V domains shown)
VH: EVQLLESGGGLVQPGGSLRLSCAASGFTFSKYAMAWVRQAPGKGLEWVASISTGGVNTYYRDSVKARFTISRDNSKNTLYLQMNSLRAEDTAVYYCATHTGDYFDYWGQGTMVTVSS
VL: DIVMTQSPDSLAVSLGERATINCRASQSVSISGINLMNWYQQKPGQQPKLLIYHASILASGVPDRFSGSGSGTDFTLTISSLQAEDVAVYYCQQTRESPLTFGQGTRLEIK
B5: P1AE5709 (antibody, V domains shown)
VH: B4 VH
VL: EIVLTQSPGTLSLSPGERATLSCRASQSVSISGINLMNWYQQKPGQQPRLLIYHASILASGIPDRFSGSGSGTDFTLTISRLEPEDFAVYYCQQTRESPLTFGQGTRLEIK
B6: P1AE5724 (antibody, V domains shown)
VH: B4 VH with R61A, A66G
VL: B2 VL
B7: P1AE5730 (antibody, V domains shown)
VH: B4 VH with V2L, R61A, A66G, S75A
VL: B2 VL
B8: P1AE5725 (antibody, V domains shown)
VH: B4 VH with R61A, A66G
VL: B2 VL with K46Q
B9: P1AE5731 (antibody, V domains shown)
VH: B4 VH with V2L, R61A, A66G, S75A
VL: B2 VL with K46Q
B10: P1AE5712 (antibody, V domains shown)
VH: B4 VH
VL: B2 VL
B11: P1AE5721 (antibody, V domains shown)
VH: B4 VH with R61A, A66G
VL: B4 VL with R24K, A25S
B12: P1AE5728 (antibody, V domains shown)
VH: B4 VH with V2L, R61A, A66G, S75A
VL: B5 VL
B13: P1AE5710 (antibody, V domains shown)
VH: B4 VH
VL: B5 VL with R49K
B14: P1AE5714 (antibody, V domains shown)
VH: B4 VH with V2L, S75A
VL: B4 VL
B15: P1AE5729 (antibody, V domains shown)
VH: B4 VH with V2L, R61A, A66G, S75A
VL: B5 VL with R49K
B16: P1AE5722 (antibody, V domains shown)
VH: B4 VH with R61A, A66G
VL: B5 VL
B17: P1AE5726 (antibody, V domains shown)
VH: B4 VH with V2L, R61A, A66G, S75A
VL: B4 VL
B18: P1AE5713 (antibody, V domains shown)
VH: B4 VH
VL: B2 VL with K46Q
B19: P1AE5720 (antibody, V domains shown)
VH: B4 VH with R61A, A66G
VL: B4 VL
B20: P1AE5715 (antibody, V domains shown)
VH: B4 VH with V2L, S75A
VL: B4 VL with R24K, A25S
B21: P1AE5716 (antibody, V domains shown)
VH: B4 VH with V2L, S75A
VL: B5 VL
B22: P1AE5708 (antibody, V domains shown)
VH: B4 VH
VL: B4 VL with R24K, A25S
B23: P1AE5727 (antibody, V domains shown)
VH: B4 VH with V2L, R61A, A66G, S75A
VL: B4 VL with R24K, A25S
B24: P1AE5717 (antibody, V domains shown)
VH: B4 VH with V2L, S75A
VL: B5 VL with R49K
B25: P1AE5723 (antibody, V domains shown)
VH: B4 VH with R61A, A66G
VL: B5 VL with R49K
B26: B72-TCB (bispecific antibody, human IgG1, kappa, L234A L235A)
heavy 1: not shown
light 1: EVQLVESGGGLVQPGGSLRLSCAASGFTFNTYAMNWVRQAPGKGLEWVARIRSKYNNYATYYAASVKGRFTISRDDSKNSLYLQMNSLKTEDTAVYYCARHGNFGNSYVSWFAYWGQGTLVTVSSASVAAPSVFIFPPSDEQLKSGTASVVCLLNNFYPREAKVQWKVDNALQSGNSQESVTEQDSKDSTYSLSSTLTLSKADYEKHKVYACEVTHQGLSSPVTKSFNRGEC
heavy 2: QVQLVQSGAEVKKPGASVKVSCKASGYSFTGYTMNWVRQAPGQGLEWMGLINPYNSDTNYAQKLQGRVTMTTDTSTSTAYMELRSLRSDDTAVYYCARVALRVALDYWGQGTLVTVSSASTKGPSVFPLAPSSKSTSGGTAALGCLVEDYFPEPVTVSWNSGALTSGVHTFPAVLQSSGLYSLSSVVTVPSSSLGTQTYICNVNHKPSNTKVDEKVEPKSCDKTHTCPPCPAPEAAGGPSVFLFPPKPKDTLMISRTPEVTCVVVDVSHEDPEVKFNWYVDGVEVHNAKTKPREEQYNSTYRVVSVLTVLHQDWLNGKEYKCKVSNKALGAPIEKTISKAKGQPREPQVCTLPPSRDELTKNQVSLSCAVKGFYPSDIAVEWESNGQPENNYKTTPPVLDSDGSFFLVSKLTVDKSRWQQGNVFSCSVMHEALHNHYTQKSLSLSPGK
light 2: DIQMTQSPSSLSASVGDRVTITCKASQNVATHVGWYQQKPGKAPKRLIYSASYRYSGVPSRFSGSGSGTEFTLTISNLQPEDFATYYCQQYNRYPYTFGQGTKLEIKRTVAAPSVFIFPPSDRKLKSGTASVVCLLNNFYPREAKVQWKVDNALQSGNSQESVTEQDSKDSTYSLSSTLTLSKADYEKHKVYACEVTHQGLSSPVTKSFNRGEC
B27: ET150-5-TCB (bispecific antibody, human IgG1, lambda, L234A L235A)
light 1: QSVLTQPPSASGTPGQRVTISCSGSRSNVGGNYVFWYQQVPGATPKLLIYRSNQRPSGVPDRFAGSKSGSSASLAISGLRSEDEADYYCATWDDSLSGFVFGTGTKVTVLGQPKAAPSVTLFPPSSKKLQANKATLVCLISDFYPGAVTVAWKADSSPVKAGVETTTPSKQSNNKYAASSYLSLTPEQWKSHRSYSCQVTHEGSTVEKTVAPTECS
light 2: B26 light 1 with V5L, N30S, A49S, A64D, S80T, K89R, T90A, A99V
heavy 1: EVQLVESGGGLVKPGGSLRLSCAASGFTFSDYYMSWIRQAPGKGLEWVSYISSSGSTIYYADSVKGRFTISRDNAKNSLYLQMNSLRAEDTAVYYCARGYGKAYDQWGQGTLVTVSSASTKGPSVFPLAPSSKSTSGGTAALGCLVEDYFPEPVTVSWNSGALTSGVHTFPAVLQSSGLYSLSSVVTVPSSSLGTQTYICNVNHKPSNTKVDEKVEPKSCDKTHTCPPCPAPEAAGGPSVFLFPPKPKDTLMISRTPEVTCVVVDVSHEDPEVKFNWYVDGVEVHNAKTKPREEQYNSTYRVVSVLTVLHQDWLNGKEYKCKVSNKALGAPIEKTISKAKGQPREPQVCTLPPSRDELTKNQVSLSCAVKGFYPSDIAVEWESNGQPENNYKTTPPVLDSDGSFFLVSKLTVDKSRWQQGNVFSCSVMHEALHNHYTQKSLSLSPGK
heavy 2: not shown

Each binder was assayed against T1, human GPRC5D (human, UniProt Q9NZD1 1-345) (assay: cell-based or functional assay).
T1 sequence (Q9NZD1 whole entry): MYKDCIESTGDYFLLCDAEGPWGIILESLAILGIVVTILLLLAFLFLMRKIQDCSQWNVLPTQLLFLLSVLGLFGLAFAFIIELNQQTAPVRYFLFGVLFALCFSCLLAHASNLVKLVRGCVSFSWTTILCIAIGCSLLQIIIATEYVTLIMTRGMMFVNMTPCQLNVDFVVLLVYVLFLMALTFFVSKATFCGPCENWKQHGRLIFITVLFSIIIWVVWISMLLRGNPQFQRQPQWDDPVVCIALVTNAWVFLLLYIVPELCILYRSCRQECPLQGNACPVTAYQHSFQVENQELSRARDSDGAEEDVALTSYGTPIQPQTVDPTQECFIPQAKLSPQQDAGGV

| CAR-J2 EC50 [ng/mL] | Binder |
| --- | --- |
| 3.9 | B1 |
| 105 | B2 |
| 2.8 | B3 |
| 42.4 | B4 |
| 59.4 | B5 |
| 3.6 | B6 |
| 3.5 | B7 |
| 10.9 | B8 |
| 2.3 | B9 |
| 16.1 | B10 |
| 25 | B11 |
| 5.6 | B12 |
| 3.5 | B13 |
| 5.5 | B14 |
| 61.3 | B15 |
| 4.6 | B16 |
| 37.8 | B17 |
| 76.9 | B18 |
| 6.3 | B19 |
| 3.6 | B20 |
| 3.3 | B21 |
| 456 | B22 |
| 6.3 | B23 |
| 79.9 | B24 |
| 3.7 | B25 |

Molecular target: T1, human GPRC5D
Experiment: cell-based or functional assay
Remark: another data set of the same source

| Binder | EC50 of in vitro killing, AMO-1 [nM] | EC50 of in vitro killing, EJM [nM] | EC50 of in vitro killing, L363 [nM] | EC50 of in vitro killing, MOLP-2 [nM] | EC50 of in vitro killing, NCI-H929 [nM] | EC50 of in vitro killing, OPM-2 [nM] | EC50 of in vitro killing, RPMI [nM] |
| --- | --- | --- | --- | --- | --- | --- | --- |
| B26 | 0.109 | 0.06 | 0.058 | 0.124 | 0.058 | 0.171 | 0.193 |

Molecular target: T1, human GPRC5D
Experiment: cell-based or functional assay
Remark: another data set of the same source

| Binder | EC50 of T cell mediated killing, AMO-1 cells (LDH release) [nM] | EC50 of T cell mediated killing, L363 cells (LDH release) [nM] | EC50 of T cell mediated killing, NCI-H929 cells (LDH release) [nM] | EC50 of T cell mediated killing, RPMI-8226 cells (LDH release) [nM] |
| --- | --- | --- | --- | --- |
| B27 | 0.0835 | 0.768 | 0.833 | 0.797 |

Source: patent US20220411491A1 (Hoffmann-La Roche, published 2022)
